# Laboratory results published in patent publication US20260008815A1, “CYCLIC PEPTIDE OR SALT THEREOF, AND USES THEREOF” (FUJIFILM Corporation, priority 2023, published 2026).
# Bridge positions count the residues as written; N and C are the ends. Ends that are not written are not given here. COCH2 = acetyl group that carries the bridge
# Target: T1, Recombinant Human FGFR2 alpha (IIIc) Fc Chimera Protein (Homo sapiens, UniProt P21802)
# T1 construct: Fc (chimera); purchased R&D systems 712-FR-050
# T1 sequence (P21802 with tags, fused parts or gaps limits assumed): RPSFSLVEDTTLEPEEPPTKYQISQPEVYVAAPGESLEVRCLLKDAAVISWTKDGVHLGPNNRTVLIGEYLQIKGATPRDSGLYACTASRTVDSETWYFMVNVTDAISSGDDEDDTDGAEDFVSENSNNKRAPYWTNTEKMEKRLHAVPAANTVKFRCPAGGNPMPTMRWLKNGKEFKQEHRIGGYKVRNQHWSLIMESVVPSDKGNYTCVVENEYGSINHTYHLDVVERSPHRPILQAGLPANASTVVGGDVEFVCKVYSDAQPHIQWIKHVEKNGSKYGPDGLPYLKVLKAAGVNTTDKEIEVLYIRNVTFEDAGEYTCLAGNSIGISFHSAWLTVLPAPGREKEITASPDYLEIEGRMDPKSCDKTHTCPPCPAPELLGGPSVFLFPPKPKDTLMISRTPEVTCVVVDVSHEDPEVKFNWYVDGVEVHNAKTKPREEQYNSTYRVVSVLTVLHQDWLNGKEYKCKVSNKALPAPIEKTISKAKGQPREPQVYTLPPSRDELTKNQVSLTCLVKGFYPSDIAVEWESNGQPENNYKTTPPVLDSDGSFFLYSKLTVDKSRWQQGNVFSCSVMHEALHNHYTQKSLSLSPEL
# Experiment: ELISA binding affinity of enzymatically synthesized peptide to FGFR
# Details: ELISA luminescence signal at 10 nmol/L peptide, SEQ ID NO: 47 at 10 nmol/L standardized to 1; enzyme synthesis product
# Method: The binding affinity of the peptide to FGFR was evaluated using an ELISA method.
# The binding affinity of the enzymatically synthesized peptide to FGFR was measured by evaluating the amount of the peptide bound to FGFR by ELISA.
# First, 5 ng of Recombinant Human FGFR2 alpha (IIIc) Fc Chimera Protein (R&D systems, 712-FR-050) was immobilized in each well of a 96-well plate, and blocked with Pierce Protein-Free (PBS) Blocking Buffer (Thermo, 37572), and a peptide diluted with Can Get Signal Immunoreaction Enhancer Solution I (TOYOBO, NKB-101) was then added and reacted at room temperature for 3 hours. After washing with 0.05% Tween 20-containing phosphate buffered saline (PBS), an anti-Myc antibody (Cell Signaling, 14038S) diluted with Can Get Signal Immunoreaction Enhancer Solution II (TOYOBO, NKB-101) was added and reacted at room temperature for 2 hours. After washing with 0.05% Tween 20-containing PBS, SuperSignal ELISA Femto Substrate (Thermo, 37075) was added, and the luminescence amount was measured. The dose-response relationship was calculated from using the difference between the luminescence amount in the well in which FGFR was immobilized and the luminescence amount in the well in which FGFR was not immobilized, and the concentration of the peptide at the time of reaction, and the binding affinity to FGFR was evaluated according to the following evaluation criteria. The evaluation result preferably satisfies the evaluation criteria A, B, or C.
# In a case where a value of a luminescence signal emitted by the cyclic peptide set forth in SEQ ID NO: 47 at a reaction concentration of 10 nmol/L is standardized to 1, evaluation criteria of the luminescence signal value emitted by the cyclic peptide at a reaction concentration of 10 nmol/L is as follows. • A: 0.7 or more • B: 0.5 or more and less than 0.7 • C: 0.1 or more and less than 0.5 • D: less than 0.1.
row,Molecule,Evaluation result of binding affinity to FGFR
1,34 (CRALLRGAPFHLAEC; disulfide 1-15) [compound 34],D (less than 0.1)
2,"35 (YRSRKYSSWYVALKR; also: cyclic peptide, ring not given here) [compound 35]",D (less than 0.1)
3,36 (CRALLRGAPFHLAEK(COCH2); thioether 1-15) [compound 36],D (less than 0.1)
4,37 (QCQLNYWDDLQFTYYLQYK(COCH2)V; thioether 2-19) [compound 37],A (0.7 or more)
5,38 (QCSYLYQYVFERYKVTVPK(COCH2)D; thioether 2-19 (inferred)) [compound 38],A (0.7 or more)
6,39 (QCENWLSQDQWKYFWQYK(COCH2)I; thioether 2-18 (inferred)) [compound 39],A (0.7 or more)

# Target: T2, Recombinant Human FGFR2 alpha (IIIc) Fc Chimera Protein, CF (R&D systems, 712-FR-050) (human, UniProt P21802 22-377)
# T2 construct: bought; not shown: Fc part of the chimera
# T2 sequence (P21802 22-377, change not shown): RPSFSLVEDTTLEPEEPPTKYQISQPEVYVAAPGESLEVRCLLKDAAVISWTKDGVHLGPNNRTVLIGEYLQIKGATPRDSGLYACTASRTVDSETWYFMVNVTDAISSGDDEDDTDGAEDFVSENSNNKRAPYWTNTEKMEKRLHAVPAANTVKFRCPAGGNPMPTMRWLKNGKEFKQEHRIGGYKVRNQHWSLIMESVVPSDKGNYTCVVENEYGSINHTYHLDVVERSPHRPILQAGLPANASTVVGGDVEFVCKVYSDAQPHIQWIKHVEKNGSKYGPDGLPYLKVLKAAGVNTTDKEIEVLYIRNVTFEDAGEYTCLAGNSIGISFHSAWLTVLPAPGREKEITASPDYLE
# Experiment: ELISA on plate-bound FGFR2-Fc
# Details: not given
# Outline: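 Peptide binding scored by category from dose-response of background-corrected luminescence (FGFR-coated minus uncoated wells). Detection via anti-Myc antibody (2 h, room temperature) after 3 h peptide incubation on wells coated with 5 ng FGFR2 alpha (IIIc)-Fc.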
row,Molecule,"ELISA luminescence signal at 10 nmol/L peptide, relative to SEQ ID NO: 47 (=1) [ratio]"
1,QCQTDHQQQLYFIYQYLQK(COCH2)I (thioether 2-19) [cyclic peptide SEQ ID NO: 110],0.1 to 0.5
2,QCWYIQQYIWERYFLWHNK(COCH2)E (thioether 2-19) [cyclic peptide SEQ ID NO: 120],0.1 to 0.5
3,ECPWNFVNQLQWQYFITYK(COCH2)V (thioether 2-19) [cyclic peptide SEQ ID NO: 129],≥ 0.7
4,PCVQNYFNDLQWIFLQHYK(COCH2)R (thioether 2-19) [cyclic peptide SEQ ID NO: 128],≥ 0.7
5,QCENWLSQDQWKYFWQYK(COCH2)I (thioether 2-18; not fully specified; printed as Q-(C)-ENWLSQDQWKYFWQY-(K(acetyl))-I) [cyclic peptide SEQ ID NO: 39],≥ 0.7
6,QCQLNYWDDLQFTYYLQYK(COCH2)V (thioether 2-19) [cyclic peptide SEQ ID NO: 37],≥ 0.7
7,DCRDLQLFYIYQYLDALKK (not fully specified; thioether ring (C)-(K(acetyl))) [cyclic peptide SEQ ID NO: 124],0.1 to 0.5
8,HCDGNWWNSQQFFYLLLYK(COCH2)H (thioether 2-19) [cyclic peptide SEQ ID NO: 130],≥ 0.7
9,NCPNYWSQIQWHYFQAYK(COCH2)Q (thioether 2-18) [cyclic peptide SEQ ID NO: 115],≥ 0.7
10,QCDQEFYLALYAWTLRSYK(COCH2)L (thioether 2-19) [cyclic peptide SEQ ID NO: 111],0.1 to 0.5
11,LCPVPQQTDYLRWYQIIHK(COCH2)Q (thioether 2-19) [cyclic peptide SEQ ID NO: 118],0.1 to 0.5
12,DCYWDDQQYSFLQLYK(COCH2)R (thioether 2-16) [cyclic peptide SEQ ID NO: 121],≥ 0.7
13,LCRNYINPQQWRYFALYK(COCH2)Y (thioether 2-18) [cyclic peptide SEQ ID NO: 108],≥ 0.7
14,LCRNYINPQQWRYFALYK(COCH2)N (thioether 2-18) [cyclic peptide SEQ ID NO: 117],≥ 0.7
15,ECQENFVDRQQYWYFLSYK(COCH2)F (thioether 2-19) [cyclic peptide SEQ ID NO: 132],≥ 0.7
16,QCQNFITEVQFTYFWHYK(COCH2)T (thioether 2-18) [cyclic peptide SEQ ID NO: 123],≥ 0.7
17,DCFINELQYFYIQQYKK (not fully specified; thioether ring (C)-(K(acetyl))) [cyclic peptide SEQ ID NO: 109],0.5 to 0.7
18,YCRDNYFYLEQWQYLYLYK(COCH2)H (thioether 2-19) [cyclic peptide SEQ ID NO: 125],≥ 0.7

row,Molecule,"ELISA luminescence signal at 10 nmol/L peptide, relative to SEQ ID NO: 47 (=1) [ratio]"
1,HCQPEYELYYIYLYLNALK(COCH2)I (thioether 2-19) [cyclic peptide SEQ ID NO: 112],0.1 to 0.5
2,LCGNYITPLQWKYFQTYK(COCH2)W (thioether 2-18) [cyclic peptide SEQ ID NO: 41],≥ 0.7
3,QCRYFWQYVLERYRVRLPK(COCH2)E (thioether 2-19) [cyclic peptide SEQ ID NO: 119],≥ 0.7
4,YCTDNYIDDIQFWYLFLYK(COCH2)Q (thioether 2-19) [cyclic peptide SEQ ID NO: 107],0.5 to 0.7
5,YCTDNYIDDIQFWYLFLYK(COCH2)H (thioether 2-19) [cyclic peptide SEQ ID NO: 114],≥ 0.7
6,QCSYLYQYVFERYKVTVPK(COCH2)D (thioether 2-19; not fully specified; printed as Q-(C)-SYLYQYVFERYKVTVP-(K(acetyl))-D) [cyclic peptide SEQ ID NO: 38],≥ 0.7
7,CENYLDPEQYQYFHYFK(COCH2)Y (thioether 1-17 (inferred)) [cyclic peptide SEQ ID NO: 432],0.1 to 0.5
8,YCPYNFYNIIQFHYFLTYK(COCH2)T (thioether 2-19) [cyclic peptide SEQ ID NO: 127],≥ 0.7
9,QCYQNWYLYQYLVERYYK(COCH2)D (thioether 2-18) [cyclic peptide SEQ ID NO: 116],0.1 to 0.5
10,QCYFLSQYILERYKVHK(COCH2)L (thioether 2-17) [cyclic peptide SEQ ID NO: 42],≥ 0.7
11,YRSRKYSSWYVALKR (not fully specified) [linear peptide SEQ ID NO: 35],< 0.1
12,QCENWVNSTQFEFFWQYK(COCH2)T (thioether 2-18) [cyclic peptide SEQ ID NO: 122],0.5 to 0.7
13,LCEINWLSQEQYGYFIEYK(COCH2)T (thioether 2-19) [cyclic peptide SEQ ID NO: 126],≥ 0.7
14,RCINYWSGQQFYFFQQYK(COCH2)F (thioether 2-18) [cyclic peptide SEQ ID NO: 113],0.1 to 0.5
15,DCSGNFFSKEQFHYLELFK(COCH2)K (thioether 2-19; not fully specified; printed as D-(C)-SGNFFSKEQFHYLELF-(K(acetyl))-K) [cyclic peptide SEQ ID NO: 40],≥ 0.7
16,"CRALLRGAPFHLAEC (disulfide 1-15, also called cyclic peptide reported in WO2000/003245A) [cyclic peptide SEQ ID NO: 34]",< 0.1
17,CRALLRGAPFHLAEK(COCH2) (thioether 1-15) [cyclic peptide SEQ ID NO: 36],< 0.1
